Laboratory results taken from patent publication US20250197467A1 (BRIGHT PEAK THERAPEUTICS, published 2025).

T1: IL-18 receptor (IL-18Rαβ) on cells (UniProt Q13478 19-541; O95256 20-599, limits assumed)
T1 sequence (looked up) 1: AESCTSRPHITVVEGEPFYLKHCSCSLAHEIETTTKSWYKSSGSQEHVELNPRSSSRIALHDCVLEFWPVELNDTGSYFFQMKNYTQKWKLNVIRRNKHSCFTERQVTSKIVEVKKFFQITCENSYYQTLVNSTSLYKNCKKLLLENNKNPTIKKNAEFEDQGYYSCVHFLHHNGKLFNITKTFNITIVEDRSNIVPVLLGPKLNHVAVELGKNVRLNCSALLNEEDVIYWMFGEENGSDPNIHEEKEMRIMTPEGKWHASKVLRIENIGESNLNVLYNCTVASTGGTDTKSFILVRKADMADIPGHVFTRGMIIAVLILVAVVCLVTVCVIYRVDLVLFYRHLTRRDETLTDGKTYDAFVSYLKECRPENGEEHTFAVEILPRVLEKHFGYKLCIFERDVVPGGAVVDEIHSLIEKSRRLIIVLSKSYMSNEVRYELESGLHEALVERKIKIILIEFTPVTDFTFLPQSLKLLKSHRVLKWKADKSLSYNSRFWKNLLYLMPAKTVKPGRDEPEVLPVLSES
T1 sequence (looked up) 2: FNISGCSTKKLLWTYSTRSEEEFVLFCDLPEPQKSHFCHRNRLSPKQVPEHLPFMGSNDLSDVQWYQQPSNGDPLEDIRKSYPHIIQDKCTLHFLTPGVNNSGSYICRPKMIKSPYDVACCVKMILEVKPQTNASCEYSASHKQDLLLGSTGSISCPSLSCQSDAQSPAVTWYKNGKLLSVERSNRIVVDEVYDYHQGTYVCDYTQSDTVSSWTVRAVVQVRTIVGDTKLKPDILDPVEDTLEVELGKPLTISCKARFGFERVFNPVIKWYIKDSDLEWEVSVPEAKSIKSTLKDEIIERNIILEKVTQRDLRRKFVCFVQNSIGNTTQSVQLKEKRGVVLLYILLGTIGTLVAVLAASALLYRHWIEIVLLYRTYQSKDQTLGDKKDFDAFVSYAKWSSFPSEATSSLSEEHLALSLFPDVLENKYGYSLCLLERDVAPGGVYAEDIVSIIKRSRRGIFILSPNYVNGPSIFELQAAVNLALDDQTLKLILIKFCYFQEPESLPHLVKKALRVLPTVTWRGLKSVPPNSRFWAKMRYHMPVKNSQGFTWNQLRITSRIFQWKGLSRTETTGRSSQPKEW


Legend:
[1] = biological target: T1, IL-18 receptor (IL-18Rαβ) on cells; assay: cell-based or functional assay
[2] = biological target: T1, IL-18 receptor (IL-18Rαβ) on cells; assay: cell-based or functional assay; remark: listed apart in the source

Binder | EC50 (IFNγ stimulation, NK92) [1] | HEK-Blue IL-18R reporter EC50 [2]
C151 (ligand) YFGKLESKLSIIRNLNDQVLFIDQGNRPLFEDMTASDARDNAPRTIFIISMYADSQPRGMAVTISVKCEKISTLSAENKIISFKEMNPPDNIKDTKSDIIFFQRSVPGHDNKMQFESSSYEGYFLAAEKERDLFKLILKKEDELGDRSIMFTVQNED | 0.061 nM | 0.0131 nM
C159 (ligand) YFGKLESKLSIIRNLNDQVLFIDQGNRPLFEDMTDSDARDNAPRTIFIISMYADSQPRGMAVTISVKCEKISTLSAENKIISFKEMNPPDNIKDTKSDIIFFQRSVPGADNKMQFESSSYEGYFLAAEKERDLFKLILKKEDELGDRSIMFTVQNED | 0.123 nM | 0.0195 nM
C156 (ligand) YFGKLESKLSIIRNLNDQVLFIDQGNRPLFEDMTDSDARDAAPRTIFIISMYADSQPRGMAVTISVKCEKISTLSAENKIISFKEMNPPDNIKDTKSDIIFFQRSVPGHDNKMQFESSSYEGYFLAAEKERDLFKLILKKEDELGDRSIMFTVQNED | 0.558 nM | 0.0117 nM
C155 (ligand) YFGKLESKLSIIRNLNDQVLFIDQGNRPLFEDMTDSDARANAPRTIFIISMYADSQPRGMAVTISVKCEKISTLSAENKIISFKEMNPPDNIKDTKSDIIFFQRSVPGHDNKMQFESSSYEGYFLAAEKERDLFKLILKKEDELGDRSIMFTVQNED | 0.067 nM | 0.00052 nM
C158 (ligand) YFGKLESKLSIIRNLNDQVLFIDQGNRPLFEDMTDSDARDNAPRTIFIISMYADSQPRGMAVTISVKCEKISTLSAENKIISFKEMNPPDNIKDTKSDIIFFQRSVPAHDNKMQFESSSYEGYFLAAEKERDLFKLILKKEDELGDRSIMFTVQNED | 0.073 nM | 0.0156 nM
C154 (ligand) YFGKLESKLSIIRNLNDQVLFIDQGNRPLFADMTDSAARDNAPRTIFIISMYADSQPRGMAVTISVKCEKISTLSAENKIISFKEMNPPDNIKDTKSDIIFFQRSVPGHDNKMQFESSSYEGYFLAAEKERDLFKLILKKEDELGDRSIMFTVQNED | 0.062 nM | 0.0119 nM
C152 (ligand) YFGKLESKLSIIRNLNDQVLFIDQGNRPLFEDMTDADARDNAPRTIFIISMYADSQPRGMAVTISVKCEKISTLSAENKIISFKEMNPPDNIKDTKSDIIFFQRSVPGHDNKMQFESSSYEGYFLAAEKERDLFKLILKKEDELGDRSIMFTVQNED | 0.033 nM | 0.00025 nM

Second part, the binder after the results:

EC50 (IFNγ stimulation, NK92) [1] | HEK-Blue IL-18R reporter EC50 [2] | Binder
0.015 nM | 0.0007 nM | C150 (ligand) YFGKLESKLSIIRNLNDQVLFIDQGNRPLFEDMADSDARDNAPRTIFIISMYADSQPRGMAVTISVKCEKISTLSAENKIISFKEMNPPDNIKDTKSDIIFFQRSVPGHDNKMQFESSSYEGYFLAAEKERDLFKLILKKEDELGDRSIMFTVQNED
0.056 nM | 0.00195 nM | C157 (ligand) YFGKLESKLSIIRNLNDQVLFIDQGNRPLFEDMTDSDARDNAPRTIFIISMYADSQPRGMAVTISVKCEKISTLSAENKIISFKEMNPPDNIKDTKSDIIFFQRSVPGHDNKMQFESSSYEGYFLAAEKERALFKLILKKEDELGDRSIMFTVQNED
0.175 nM | 0.0141 nM | C153 (ligand) YFGKLESKLSIIRNLNDQVLFIDQGNRPLFEDMTDSAARDNAPRTIFIISMYADSQPRGMAVTISVKCEKISTLSAENKIISFKEMNPPDNIKDTKSDIIFFQRSVPGHDNKMQFESSSYEGYFLAAEKERDLFKLILKKEDELGDRSIMFTVQNED
